# Experimental data: patent US20210388065A1 (published 2021)
# B1: 105-43 antibody (antibody, V domains shown)
# VH: EVQLVESGGGLVQPGGSLRLSCAASGFTFSSYDMHWVRQATGKGLEWISAIGTTGDIYYADSVKGRFTISRENAENSLYLQMNSLRAGDTAVYYCARYRGAFDVWGQGTMVTVSS
# VL: EIVMTQSPVTLSLSPGERATLSCRASQSVGTYLAWYQQKPGQAPRLLIYDASNRATRIPARFSGSGSGTDFTLTISSLEPEDFAVYYCQQGSNWPLTFGGGTKVEIK
# B2: 105-9 antibody (antibody, V domains shown)
# VH: EVQLVESGGGLVKPGRSLRLSCTASGFTFGDYAMSWFRQAPGKGLEWVGFIRSKAYGWTTQYAASVKGRFTISRDDSKSIAYLQMKSLNSEDTAVYYCTRDPWGTTYFDYWGQGTLVTVSS
# VL: EIVMTQSPATLSVSPGERATLSCRASQSVSSNLAWYQQKPGQGPRLLIYGASTRATGVPARFSGSGSGTDFTLTISSLQSEDFAIYYCQHYNNWFTFGQGTKVEIK
# B3: 414-1 antibody (antibody, V domains shown)
# VH: QVQLVQSGAEVKKPGASVKVSCKASGYTFTSYYMHWVRQAPGQGLEWMGIINPSGGSTSYAQKFQGRVTMTRDTSTSTVYMELSSLRSEDTAVYYCARGALGCSSTSCYPNNFDYWGQGTLVTVSS
# VL: not shown
# B4: 105-38 antibody (antibody, V domains shown)
# VH: EVQLVESGGGLVQPGGSLRLSCAASGFTFSSYWMHWVRQAPGKGLVWVSRINSDGSSTSYADSVKGRFTISRDNAKNTLYLQMNSLRAEDTAVYYCARVQWLRGEFDYWGQGTLVTVSS
# VL: DVVLTQPHSVSESPGKTVTISCTGSSGSIASNYVQWYQQRPGSAPTTVIYEDNQRPSGVPDRFSGSIDSSSNSASLTISGLKTEDEADYYCQSYDSSTDVVFGGGTELTVL
# B5: 414-3-2 antibody (antibody, V domains shown)
# VH: QVQLVESGGGVVQPGRSLRLSCAASGFTFSSYAMHWVRQAPGKGLEWVALISYDGSNKYYADSVKGRFTISRDNSKNTLYLQMNSLRAEDTAVYYCARDGGGWFDPWGQGTLVTVSS
# VL: QTVVTQPASVSGSPGQSITISCTGTSSDVGGYNYVSWYQQHPGKAPKLMIYDVSKRPSGVSNRFSGSKSGNTASLTISGLQAEDEADYYCSSYTSSSPWVFGGGTELTVL
# Target: T1, SARS-CoV-2 Spike protein (Receptor Binding Domain, RBD) (UniProt P0DTC2 331-524)
# Assay: ELISA
row,Binder,IC50
1,B1,59 nM
2,B2,25.2 nM
3,B3,6.68 nM
4,B4,0.598 nM

# Target: T1, SARS-CoV-2 Spike protein (Receptor …)
# Assay: ELISA
# Remark: another data set of the same source
row,Binder,EC50
1,B1,12.1 nM
2,B5,6.66 nM
3,B2,15.1 nM
4,B3,1.26 nM
5,B4,0.425 nM
